Tests used:
[1] = Transglucosylation of maltose catalyzed by αGluFA; format: biochemical
Excerpt: αGluFA is also suitable for the transfer of glucosyl groups from maltose to selectively produce a maltotriose. […] The reaction was followed by HPLC measurements.

[2] = Fe2+ content (ICP-MS) and Fe2+ dependence of activity, dialysis against EDTA; format: biochemical; details: relative to wild type = 100; after dialysis against 1 mM EDTA; 100 mM sodium citrate, 10 mM FeCl2
Description: The UV-VIS absorption spectra of purified acidic enzymes are shown in FIG. 4, wherein the uninterrupted lines refer to Fe^2+ containing enzymes and the interrupted lines refer to enzymes after dialysis against EDTA containing buffer. The λ-max values found at ca. 572 nm correlate with the Fe^2+ content, i.e. disappear after incubation with EDTA or DTT for 24 h. ICP-MS analysis confirmed the presence of 0.82±0.10 mol Fe in EstFA, 0.34±0.08 mol Fe in αGluFA, […] and 0.63±0.09 mol Fe in LigFA.
In FIG. 5, relative activities of acidic enzymes with varying content of Fe^2+ are shown. For analysis, purified enzymes were incubated in 1 mM EDTA. At time intervals indicated, two aliquots were removed, one was used for hydrolysis of respective substrates, the other for ICP-MS analysis of Fe. For relative activities, activities before incubation with EDTA were used as 100% values.
When further investigating the dependence of the acidic enzymes according to the invention on Fe^2+, relative activity for EstFA, αGluFA and LigFA were investigated for their natural Fe^2+ content, e.g. wild-type, which was set to 100%, in comparison to the activity after dialysis against a 1 mM EDTA containing buffer.

[3] = pH and temperature dependence, stability and activity of recombinant acidic enzymes; format: biochemical; details: for enzymatic stability at elevated temperatures: FIG. 2, LigFA pH 3.0, EstFA and αGluFA pH 2.0 at 40 and 50° C., GlyFA1 and GlyFA2 pH 4.0 at 40° C.; for Optimum temperature: measured at optimum pH
Description: The acidic enzymes according to the invention were expressed in E. coli using the genomiccoding sequence for the respective enzyme from Ferroplasma acidiphilum, which are described in detail below. For enzymatic conversions, reaction conditions were in 100 mM sodium acetate buffer, 100 mM citrate buffer, 100 mM HEPES buffer for 2 minutes at 30° C., using p-nitrophenol propionate as the substrate for esterase, starch in the case of glycosidases, and HindIII digested λ DNA for ligase.
The activity was assayed using p-nitrophenol propionate as a substrate for esterase, starch for αGluFA and GlyFA1, GlyFA2, and HindIII digested λ DNA for LigFA.
The acidic enzymes according to the invention in vitro show similar elevated reaction temperatures. Substrates were as described for FIG. 2 above.
An overview of catalytic and molecular properties of acidic enzymes that were heterologously expressed in E. coli is given in the following Table III: […]

[4] = substrate: CCC(=O)Oc1ccc([N+](=O)[O-])cc1; experiment: EstFA hydrolysis of p-nitrophenol esters and triglycerides; format: biochemical, Ferroplasma acidiphilum; details: other: EstFA expressed in E. coli
Description: (§1) Hydrolysis of p-nitrophenol propionate was observed spectrophotometrically at 405 nm, optionally in and 96-well plates. The substrate specificity of acidic esterase EstFA obtainable from Ferroplasma acidiphilum was characterized using the heterologously expressed EstFA of Example 6 (expressed in E. coli), using p-nitrophenol esters and triglycerides as summarised in following Table IV:
(§2) The above substrate specificities were tested in 96-well plates, using 100 mM citrate buffer (pH 2.0) in the presence of 5 μg pure EstFA. For the substrate, the concentrations between 10 nM and 10 mM were chosen. Progress of the reaction was followed by spectrophotometry using p-nitrophenol propionate as an indicator. The reaction was stopped after 10 hours by adjusting the pH to 8.0 by adding sodium hydroxide from a 100 mM stock solution and phenol red (0.8 mM) as a pH indicator. Activities and selectivities were examined according to Mam Fai Lui et al. (2001). Ester hydrolysis of enantiomerically pure esters was measured colorimetrically in 5.0 mM EPPS buffer (N-(2-hydroxyethyl) piperazine-N′-(3′-propanesulfonic acid) at pH 8.0 and phenol red after termination of the reaction.

[5] = substrate: CCCCCCCC(=O)Oc1ccc([N+](=O)[O-])cc1; experiment: as above; format: biochemical, Ferroplasma acidiphilum; details: other: EstFA expressed in E. coli
Description: as §1, §2

[6] = substrate: CCCCCCCCCCCC(=O)Oc1ccc([N+](=O)[O-])cc1; experiment: as above; format: biochemical, Ferroplasma acidiphilum; details: other: EstFA expressed in E. coli
Description: as §1, §2

[7] = substrate: CCCCCCCCCC(=O)Oc1ccc([N+](=O)[O-])cc1; experiment: as above; format: biochemical, Ferroplasma acidiphilum; details: other: EstFA expressed in E. coli
Description: as §1, §2

[8] = substrate: CC(=O)Oc1ccc([N+](=O)[O-])cc1; experiment: as above; format: biochemical, Ferroplasma acidiphilum; details: other: EstFA expressed in E. coli
Description: as §1, §2

[9] = substrate: CCCC(=O)OCC(COC(=O)CCC)OC(=O)CCC; experiment: as above; format: biochemical, Ferroplasma acidiphilum; details: other: EstFA expressed in E. coli
Description: as §1, §2

[10] = substrate: CCCC(=O)Oc1ccc([N+](=O)[O-])cc1; experiment: as above; format: biochemical, Ferroplasma acidiphilum; details: other: EstFA expressed in E. coli
Description: as §1, §2

[11] = measured at optimum temperature

B1: αGluFA: acidic glucosidase from Ferroplasma acidiphilum, 531 amino acids, Seq ID No. 11 (protein, listed as Ferroplasma acidiphilum)
chain: INSLYILNHKVIIAVAVSAILIAMVFAGANIPYPGYNPTDHLISGKHPISNVSEVPKNFTLSGNVSNSNNNLPLSGTITVSNSTMSRTFNTSSNGSYNITLPQGNYSISSSIPGFQNYSSTINLDSNKTQNISTPPATTIGNGINQVPGSTNVSTLVPYLNNSIMSGGLNTDNITGTFDKNITIDLGKKLNNTQFVVLMKLDGAVYSYNWVTNGSGMAKLFLKYSGNYTMSAYTLYYNSSVIHYNTANNDTARFNMTERITFISSVILQSAVPLHDNSSVANSTLTVKGGVFSVPSLSVNSNLTGTYYKYEVPVGFYNFAYSNAHYVSKNFGVDVTGNSTVNKTIDPYLISINIRNNTGNTFNYTLGSTFYSGNGIHMATSGITTLLVFHDGKIVYDNTILLTSANPYYQLNLTISNKNLTFNGIETDSTNLSIVYSGNVTSNFYIASLEFENFSTSATNGMIIISGAASGSYPLDSGLYTYNMSQSLPTSAGNLTIKLVYDNDSKVSTDGRMTVEVYGYNISTLGNYITE
modifications: CDS (1)..(1596) alpha glu FA, in Figure 11 designated sequence 5a
Which results are given for B1?
percentage of transglucosylated maltose ([1]; over the course of the reaction): more than 70%; product selectivity of synthesis ([1]; pH 3.0, up to 300 g/L maltotriose): selectively synthesizes maltotriose; maltose ([1]; reaction time 5): 456 g/L; maltotriose ([1]; reaction time 5): 88 g/L; percentage of maltose transglycosylated ([1]; reaction time 5): 70.3%; glucose ([1]; reaction time 5, 600 g/L maltose, pH 3.0, 50° C.): 59 g/L; glucose ([1]; reaction time 10): 76 g/L; maltose ([1]; reaction time 10): 402 g/L; maltotriose ([1]; reaction time 10): 122 g/L; percentage of maltose transglycosylated ([1]; reaction time 10): 72.7%; glucose ([1]; reaction time 20): 112 g/L; maltose ([1]; reaction time 20): 302 g/L; maltotriose ([1]; reaction time 20): 186 g/L; percentage of maltose transglycosylated ([1]; reaction time 20): 74.5%; glucose ([1]; reaction time 30): 153 g/L; maltose ([1]; reaction time 30): 199 g/L; maltotriose ([1]; reaction time 30): 248 g/L; percentage of maltose transglycosylated ([1]; reaction time 30): 73.3%; glucose ([1]; reaction time 60): 165 g/L; maltose ([1]; reaction time 60): 159 g/L; maltotriose ([1]; reaction time 60): 276 g/L; percentage of maltose transglycosylated ([1]; reaction time 60): 74.7%; glucose ([1]; reaction time 180): 185 g/L; maltose ([1]; reaction time 180): 111 g/L; maltotriose ([1]; reaction time 180): 304 g/L; percentage of maltose transglycosylated ([1]; reaction time 180): 74.0%; activity, +EDTA [2]: 5.40%; enzymatic stability at elevated temperatures [3]: good stability; enzymatic activity retained ([3]; at 65° C.): approximately 50%; temperature up to which the enzyme was stable ([3]; for 60 minutes): up to 60 °C; Optimum pH ([3]; in the presence of Fe2+): 2.0; Optimum temperature [3]: 60 °C; Optimum pH [3, 11]: 2.5-3.0; original activity retained ([3]; pH 1.5 to 3.9, incubation at 20° C. over 24 hours): more than 80%

B2: EstFA: acidophilic, Fe2+ dependent esterase from Ferroplasma acidiphilum, 308 amino acids, Seq ID No. 6 (protein, listed as Ferroplasma acidiphilum)
chain: INSLYILNHKVIIAVAVSAILIAMVFAGANIPYPGYNPTDHLISGKHPISNVSEVPKNFTLSGNVSNSNNNLPLSGTITVSNSTMSRTFNTSSNGSYNITLPQGNYSISSSIPGFQNYSSTINLDSNKTQNISTPPATTIGNGINQVPGSTNVSTLVPYLNNSIMSGGLNTDNITGTFDKNITIDLGKKLNNTQFVVLMKLDGAVYSYNWVTNGSGMAKLFLKYSGNYTMSAYTLYYNSSVIHYNTANNDTARFNMTERITFISSVILQSAVPLHDNSSVANSTLTVKGGVFSVPSLSVNSNLTGTYYKYEVPVGFYNFAYSNAHYVSKNFGVDVTGNSTVNKTIDPYLISINIRNNTGNTFNYTLGSTFYSGNGIHMATSGITTLLVFHDGKIVYDNTILLTSANPYYQLNLTISNKNLTFNGIETDSTNLSIVYSGNVTSNFYIASLEFENFSTSATNGMIIISGAASGSYPLDSGLYTYNMSQSLPTSAGNLTIKLVYDNDSKVSTDGRMTVEVYGYNISTLGNYITE
modifications: PEPTIDE (1)..(531) alpha Glu FA
With B2 as the molecule, how does the “activity, +EDTA” value [2] read?
Its value is 0.30%.

And the “stability of purified enzyme” value ([3]; 20 mM citrate buffer, pH 1.5, room temperature)?
The value was “stable”.

And the “enzymatic stability at elevated temperatures” value [3]?
Its value is “good stability”.

And the Optimum temperature [3]?
Its Optimum temperature is 50 °C.

And the “Optimum pH” value [3, 11]?
Its value is 2.0-3.5.

What about the “stability at pH values above 5.0” value ([3]; pH above 5.0) of the same molecule?
The value was “rapidly inactivated”.

B3: EstFA (Ferroplasma acidiphilum) (protein)
chain: MHLMNMVDPDFNSLIELSKSAGDMTKIEPAMLRNFLDESSLSSRGAPVEIKEIKDYKIKLDGRTLNARMYDDNNAKSAILYYHGGGFLFGNIETYDNYCRFLAKESGVKIISIEYRLAPEHKFPDAFNDAYDSFHYIAKKKKDFGIEGRIGVAGDSAGANLAAALCLKCRDGKTEMPAVQVLFYPSLAPDNFSRSFIEYSDNYVLTGKMIRYFGNMYSKNMQDLINPYFSPLVADDFSNLPPAIMVTNEYDPLRDPEETYVKKLREAGVRAVGIRGIGMIHGSATDFEVSDGARNIVKMVARIIPDYL
For B3, which Km [4] is on record?
The Km was 0.20 ± 0.04 mg/mL.

What about the kcat [4] of the same molecule?
Its kcat is 1190 ± 25 s⁻¹.

And the Km [5]?
The Km was 1.68 ± 0.12 mg/mL.

And the kcat [5]?
The kcat was 239 ± 12 s⁻¹.

And the Km [6]?
Its Km is 4.41 ± 0.38 mg/mL.

And the kcat [6]?
The kcat was 120 ± 4 s⁻¹.

What about the Km [7] of the same molecule?
The Km was 4.30 ± 0.42 mg/mL.

And the kcat [7]?
Its kcat is 179 ± 4 s⁻¹.

And the Km [8]?
The Km was 0.39 ± 0.08 mg/mL.

What about the kcat [8] of the same molecule?
Its kcat is 860 ± 21 s⁻¹.

What about the Km [9] of the same molecule?
The Km was 1.75 ± 0.14 mg/mL.

What about the kcat [9] of the same molecule?
The kcat was 1890 ± 27 s⁻¹.

What about the Km [10] of the same molecule?
Its Km is 1.75 ± 0.12 mg/mL.

And the kcat [10]?
The kcat was 2300 ± 30 s⁻¹.

— US8003357B2, “Acidophilic enzymes” (Helmholtz-Zentrum Fuer Infektionsforschung GmbH, priority 2005, dated 2011)
